Data as given in the RNAGym collection of RNA variant scans (doi:10.1021/acssynbio.7b00057).

B1: Pistol ribozyme (parent)
chain: GGGUCGUUGUUCCAUAAUCGCGUGGAUAUGGCACGCAAGUUUCUACCGGGCACCGUAAAUGUCCGACUGGAGCCGUUCGGGCGGCUAUAAACAGACCUCAGGCCCGAAGCGUGGCGGCACCUGCCGCCGGUGGUAAAAAAGAUCGGAAGAGCACACGUCU

Variants of: B1
Assay: aptazyme ON/OFF ratio, guanine; higher = stronger switching; co-transcriptional cleavage with and without guanine

Variant	aptazyme ON/OFF ratio
GGGUCGGCUACCCAUAAUCGCGUGGAUAUGGCACGCAAGUUUCUACCGGGCACCGUAAAUGUCCGACUGGAGCCGUUCGGGCGGCUAUAAACAGACCUCAGGCCCGAAGCGUGGCGGCACCUGCCGCCGGUGGUAAAAAAGAUCGGAAGAGCACACGUCU [U7G U8C G9U U10A U11C]	1.37
GGGUCGGCUACGAAUAAUCGCGUGGAUAUGGCACGCAAGUUUCUACCGGGCACCGUAAAUGUCCGACUGGAGCCGUUCGGGCGGCUAUAAACAGACCUCAGGCCCGAAGCGUGGCGGCACCUGCCGCCGGUGGUAAAAAAGAUCGGAAGAGCACACGUCU [U7G U8C G9U U10A U11C C12G C13A]	1.14
GGGUCGGCUACGGAUAAUCGCGUGGAUAUGGCACGCAAGUUUCUACCGGGCACCGUAAAUGUCCGACUGGAGCCGUUCGGGCGGCUAUAAACAGACCUCAGGCCCGAAGCGUGGCGGCACCUGCCGCCGGUGGUAAAAAAGAUCGGAAGAGCACACGUCU [U7G U8C G9U U10A U11C C12G C13G]	1.05
GGGUCGGCUACGUAUAAUCGCGUGGAUAUGGCACGCAAGUUUCUACCGGGCACCGUAAAUGUCCGACUGGAGCCGUUCGGGCGGCUAUAAACAGACCUCAGGCCCGAAGCGUGGCGGCACCUGCCGCCGGUGGUAAAAAAGAUCGGAAGAGCACACGUCU [U7G U8C G9U U10A U11C C12G C13U]	1.31
GGGUCGGCUACACAUAAUCGCGUGGAUAUGGCACGCAAGUUUCUACCGGGCACCGUAAAUGUCCGACUGGAGCCGUUCGGGCGGCUAUAAACAGACCUCAGGCCCGAAGCGUGGCGGCACCUGCCGCCGGUGGUAAAAAAGAUCGGAAGAGCACACGUCU [U7G U8C G9U U10A U11C C12A]	2.56
GGGUCGGCUACUCAUAAUCGCGUGGAUAUGGCACGCAAGUUUCUACCGGGCACCGUAAAUGUCCGACUGGAGCCGUUCGGGCGGCUAUAAACAGACCUCAGGCCCGAAGCGUGGCGGCACCUGCCGCCGGUGGUAAAAAAGAUCGGAAGAGCACACGUCU [U7G U8C G9U U10A U11C C12U]	1.72
GGGUCGGCUACGCAUAAUCGCGUGGAUAUGGCACGCAAGUUUCUACCGGGCACCGUAAAUGUCCGACUGGAGCCGUUCGGGCGGCUAUAAACAGACCUCAGGCCCGAAGCGUGGCGGCACCUGCCGCCGGUGGUAAAAAAGAUCGGAAGAGCACACGUCU [U7G U8C G9U U10A U11C C12G]	1.26
GGGUCGGCUAAGUAUAAUCGCGUGGAUAUGGCACGCAAGUUUCUACCGGGCACCGUAAAUGUCCGACUGGAGCCGUUCGGGCGGCUAUAAACAGACCUCAGGCCCGAAGCGUGGCGGCACCUGCCGCCGGUGGUAAAAAAGAUCGGAAGAGCACACGUCU [U7G U8C G9U U10A U11A C12G C13U]	1.19
GGGUCGGCUAACGAUAAUCGCGUGGAUAUGGCACGCAAGUUUCUACCGGGCACCGUAAAUGUCCGACUGGAGCCGUUCGGGCGGCUAUAAACAGACCUCAGGCCCGAAGCGUGGCGGCACCUGCCGCCGGUGGUAAAAAAGAUCGGAAGAGCACACGUCU [U7G U8C G9U U10A U11A C13G]	1.08
GGGUCGGCUAACUAUAAUCGCGUGGAUAUGGCACGCAAGUUUCUACCGGGCACCGUAAAUGUCCGACUGGAGCCGUUCGGGCGGCUAUAAACAGACCUCAGGCCCGAAGCGUGGCGGCACCUGCCGCCGGUGGUAAAAAAGAUCGGAAGAGCACACGUCU [U7G U8C G9U U10A U11A C13U]	1.79
GGGUCGGCUAACAAUAAUCGCGUGGAUAUGGCACGCAAGUUUCUACCGGGCACCGUAAAUGUCCGACUGGAGCCGUUCGGGCGGCUAUAAACAGACCUCAGGCCCGAAGCGUGGCGGCACCUGCCGCCGGUGGUAAAAAAGAUCGGAAGAGCACACGUCU [U7G U8C G9U U10A U11A C13A]	1.3
GGGUCGGCUACAUAUAAUCGCGUGGAUAUGGCACGCAAGUUUCUACCGGGCACCGUAAAUGUCCGACUGGAGCCGUUCGGGCGGCUAUAAACAGACCUCAGGCCCGAAGCGUGGCGGCACCUGCCGCCGGUGGUAAAAAAGAUCGGAAGAGCACACGUCU [U7G U8C G9U U10A U11C C12A C13U]	1.59
GGGUCGGCUACAGAUAAUCGCGUGGAUAUGGCACGCAAGUUUCUACCGGGCACCGUAAAUGUCCGACUGGAGCCGUUCGGGCGGCUAUAAACAGACCUCAGGCCCGAAGCGUGGCGGCACCUGCCGCCGGUGGUAAAAAAGAUCGGAAGAGCACACGUCU [U7G U8C G9U U10A U11C C12A C13G]	1.33
GGGUCGGCUACAAAUAAUCGCGUGGAUAUGGCACGCAAGUUUCUACCGGGCACCGUAAAUGUCCGACUGGAGCCGUUCGGGCGGCUAUAAACAGACCUCAGGCCCGAAGCGUGGCGGCACCUGCCGCCGGUGGUAAAAAAGAUCGGAAGAGCACACGUCU [U7G U8C G9U U10A U11C C12A C13A]	1.28
GGGUCGGCUAAUGAUAAUCGCGUGGAUAUGGCACGCAAGUUUCUACCGGGCACCGUAAAUGUCCGACUGGAGCCGUUCGGGCGGCUAUAAACAGACCUCAGGCCCGAAGCGUGGCGGCACCUGCCGCCGGUGGUAAAAAAGAUCGGAAGAGCACACGUCU [U7G U8C G9U U10A U11A C12U C13G]	1.16
GGGUCGGCUAAUUAUAAUCGCGUGGAUAUGGCACGCAAGUUUCUACCGGGCACCGUAAAUGUCCGACUGGAGCCGUUCGGGCGGCUAUAAACAGACCUCAGGCCCGAAGCGUGGCGGCACCUGCCGCCGGUGGUAAAAAAGAUCGGAAGAGCACACGUCU [U7G U8C G9U U10A U11A C12U C13U]	1.33
GGGUCGGCUAAUAAUAAUCGCGUGGAUAUGGCACGCAAGUUUCUACCGGGCACCGUAAAUGUCCGACUGGAGCCGUUCGGGCGGCUAUAAACAGACCUCAGGCCCGAAGCGUGGCGGCACCUGCCGCCGGUGGUAAAAAAGAUCGGAAGAGCACACGUCU [U7G U8C G9U U10A U11A C12U C13A]	1.23
GGGUCGGCUAAUCAUAAUCGCGUGGAUAUGGCACGCAAGUUUCUACCGGGCACCGUAAAUGUCCGACUGGAGCCGUUCGGGCGGCUAUAAACAGACCUCAGGCCCGAAGCGUGGCGGCACCUGCCGCCGGUGGUAAAAAAGAUCGGAAGAGCACACGUCU [U7G U8C G9U U10A U11A C12U]	2.3
